Data published in article doi:10.1101/2025.10.06.680677, “Mechanistic insight into the oligomerisation of Arabidopsis CRY1 and its inhibition by BIC1” (bioRxiv, 2025).
Blank lines part the entries; values can stand above or below the binder they belong to.

B3: Arabidopsis thaliana CRY1 PHR domain (residues 1-509) (domain or fragment, UniProt Q43125 1-509, looked up)
chain: MSGSVSGCGSGGCSIVWFRRDLRVEDNPALAAAVRAGPVIALFVWAPEEEGHYHPGRVSRWWLKNSLAQLDSSLRSLGTCLITKRSTDSVASLLDVVKSTGASQIFFNHLYDPLSLVRDHRAKDVLTAQGIAVRSFNADLLYEPWEVTDELGRPFSMFAAFWERCLSMPYDPESPLLPPKKIISGDVSKCVADPLVFEDDSEKGSNALLARAWSPGWSNGDKALTTFINGPLLEYSKNRRKADSATTSFLSPHLHFGEVSVRKVFHLVRIKQVAWANEGNEAGEESVNLFLKSIGLREYSRYISFNHPYSHERPLLGHLKFFPWAVDENYFKAWRQGRTGYPLVDAGMRELWATGWLHDRIRVVVSSFFVKVLQLPWRWGMKYFWDTLLDADLESDALGWQYITGTLPDSREFDRIDNPQFEGYKFDPNGEYVRRWLPELSRLPTDWIHHPWNAPESVLQAAGIELGSNYPLPIVGLDEAKARLHEALSQMWQLEAASRAAIENGSEEG
notes: Cryptochrome 1 (CRY1), Arabidopsis thaliana, photolyase homology region (PHR) domain, residues 1-509; Cloned in pACYCDuet-1; Monomer about 59 kDa by LILBID-MS; also called wild-type CRY1; source: E. coli BL21 Star (DE3), purified (Ni-NTA, SEC on Superdex 200)
B4: Arabidopsis thaliana CRY1 PHR domain (residues 1-509) L407F mutant (domain or fragment, UniProt Q43125 1-509, looked up)
chain: MSGSVSGCGSGGCSIVWFRRDLRVEDNPALAAAVRAGPVIALFVWAPEEEGHYHPGRVSRWWLKNSLAQLDSSLRSLGTCLITKRSTDSVASLLDVVKSTGASQIFFNHLYDPLSLVRDHRAKDVLTAQGIAVRSFNADLLYEPWEVTDELGRPFSMFAAFWERCLSMPYDPESPLLPPKKIISGDVSKCVADPLVFEDDSEKGSNALLARAWSPGWSNGDKALTTFINGPLLEYSKNRRKADSATTSFLSPHLHFGEVSVRKVFHLVRIKQVAWANEGNEAGEESVNLFLKSIGLREYSRYISFNHPYSHERPLLGHLKFFPWAVDENYFKAWRQGRTGYPLVDAGMRELWATGWLHDRIRVVVSSFFVKVLQLPWRWGMKYFWDTLLDADLESDALGWQYITGTFPDSREFDRIDNPQFEGYKFDPNGEYVRRWLPELSRLPTDWIHHPWNAPESVLQAAGIELGSNYPLPIVGLDEAKARLHEALSQMWQLEAASRAAIENGSEEG
notes: Cryptochrome 1 (CRY1), Arabidopsis thaliana, PHR domain, residues 1-509, with L407F; Cloned in pACYCDuet-1; also called CRY1^L407F; constitutively active CRY1; source: E. coli BL21 Star (DE3), purified (Ni-NTA, SEC on Superdex 200)

How the values were obtained:
[1] = molecular target: B3; experiment: native MS; quantitative LILBID-MS (qLILBID-MS), label-free, in the dark; KD from dissociation plots; settings: both partners purified
[2] = molecular target: B4; experiment: as above; settings: both partners purified
[3] = molecular target: B3; experiment: native MS; quantitative LILBID-MS (qLILBID-MS), label-free, under blue light; KD from dissociation plots; settings: both partners purified
[4] = molecular target: the molecule itself; experiment: not stated; wild-type BIC1, disulfide bond-mediated dimerization (Extended Data Fig. 5a, b); method not given
[5] = molecular target: the molecule itself; experiment: native MS; time-resolved nESI-MS, CRY1 15 µM, blue light, room temperature, with 100 µM ATP; reversible two-step model (monomer to dimer, dimer to tetramer)
[6] = molecular target: the molecule itself; experiment: native MS; time-resolved nESI-MS, 10 scans per second, CRY1 15 µM, blue light, room temperature, no ATP; reversible two-step model (monomer to dimer, dimer to tetramer) fitted with DynaFit
[7] = molecular target: the molecule itself; experiment: native MS; LILBID-MS, under blue light (455 nm LED, 100 µmol m-2 s-1), 20 °C, 200 mM ammonium acetate, 10 mM DTT, pH 7.4; BIC1 equimolar, added before illumination or to pre-illuminated tetrameric CRY1
[8] = molecular target: the molecule itself; experiment: SEC; analytical SEC, Superdex 200 10/300 GL, 10 °C, 30 µM protein, ß-mercaptoethanol, kept in darkness (red safe light)

Kd [1]: ~1200 nM
Kd [2]: 100 ± 30 nM
Kd [3]: 130 ± 90 nM
B1: Blue-light Inhibitor of Cryptochromes 1 (BIC1) triple mutant C99A, C105A, C136A (natural protein, Arabidopsis thaliana, UniProt Q9LXJ1 1-140, looked up)
chain: MMNIDDTTSPMAHPIGPSQPPSDQTKQDPPSLPQEAASSVSADKKDLALLEEKPKQSQEEDRVDTGRERLKKHRREIAGRVWIPEIWGQEELLKDWIDASTFDTALVPAGISSARTALVEEARRAASASGGLHNRALILR
notes: BIC1, Arabidopsis thaliana, synthetic gene with three cysteine-to-alanine substitutions; Cloned in pET28a(+) (BioCat GmbH); About 20 kDa by LILBID-MS; also called BIC1^3CA; source: E. coli BL21 Star (DE3), purified (Ni-NTA, SEC on Superdex 75)

B2: Arabidopsis thaliana wild-type BIC1 protein (natural protein, UniProt Q9LXJ1 1-140, looked up)
chain: MMNIDDTTSPMAHPIGPSQPPSDQTKQDPPSLPQEAASSVSADKKDLALLEEKPKQSQEEDRVDTGRERLKKHRREIAGRVWIPEIWGQEELLKDWIDCSTFDTCLVPAGISSARTALVEEARRAASASGGLHNRCLILR
notes: BIC1, Arabidopsis thaliana, wild type with its cysteines; The construct and its host are not described; the methods say in general that recombinant proteins carried an N-terminal His6-tag; The dimer is held by disulfide bonds
stoichiometry N [4]: 2

Binder: B3
fold change of the rate of tetramer formation with 100 µM ATP against no ATP [5]: ~4 fold
fold slowing of dimer dissociation with 100 µM ATP against no ATP [5]: > 10 fold
fold slowing of tetramer dissociation with 100 µM ATP against no ATP [5]: ~2 fold
half-life of tetramer formation (single-exponential fit) [6]: ~18 s
stoichiometry N [7]: 4

Binder: B4
stoichiometry N [8]: 4
